As a reminder, the Kd is a measure of binding affinity in units of concentration. For orientation: koff means the first-order rate constant of dissociation. The term kon denotes the second-order rate constant of association.

The values below come from publication PMC7802198, “A novel humanized Frizzled-7-targeting antibody enhances antitumor effects of Bevacizumab against triple-negative breast cancer via blocking Wnt/β-catenin signaling pathway” (Journal of Experimental & Clinical Cancer Research : CR, 2021).

What all share (test): BLI; Fortebio Octet Red96; SHH002-hu1 captured on Anti-Human Fab-CH1 2nd Generation Sensor; rhFzd1/2/5/7/8 in solution at different concentrations (rhFzd7: 6.25, 25, 100, 400 nmol/L); KB buffer (0.1% BSA + 0.05% Tween 20 in PBS, pH 7.2); KD from kd/ka
Common to all, as to details: both partners purified
Background: BLI is a label-free optical method that tracks binding on a fibre tip over time.

Assay [1] deals with T1, rhFzd1 (Homo sapiens, UniProt Q9UP38).
T1 construct: Frizzled-1, human, recombinant

Assay [2] deals with T2, rhFzd5 (Homo sapiens, UniProt Q13467).
T2 construct: Frizzled-5, human, recombinant

In assay [3] the target is T3, rhFzd8 (Homo sapiens, UniProt Q9H461).
T3 construct: Frizzled-8, human, recombinant

Assay [4] addresses T4, rhFzd2 (Homo sapiens, UniProt Q14332).
T4 construct: Frizzled-2, human, recombinant

Assay [5] addresses T5, rhFzd7 (Homo sapiens, UniProt O75084).
T5 construct: Frizzled-7, human, recombinant; the discussion says only that the recombinant human Fzd7 extracellular CRD protein was used to immunize mice; also called recombinant human Frizzled-7

A value given as a limit tells only on which side of the number the result lay.

T3 sequence (Q9H461 28-694): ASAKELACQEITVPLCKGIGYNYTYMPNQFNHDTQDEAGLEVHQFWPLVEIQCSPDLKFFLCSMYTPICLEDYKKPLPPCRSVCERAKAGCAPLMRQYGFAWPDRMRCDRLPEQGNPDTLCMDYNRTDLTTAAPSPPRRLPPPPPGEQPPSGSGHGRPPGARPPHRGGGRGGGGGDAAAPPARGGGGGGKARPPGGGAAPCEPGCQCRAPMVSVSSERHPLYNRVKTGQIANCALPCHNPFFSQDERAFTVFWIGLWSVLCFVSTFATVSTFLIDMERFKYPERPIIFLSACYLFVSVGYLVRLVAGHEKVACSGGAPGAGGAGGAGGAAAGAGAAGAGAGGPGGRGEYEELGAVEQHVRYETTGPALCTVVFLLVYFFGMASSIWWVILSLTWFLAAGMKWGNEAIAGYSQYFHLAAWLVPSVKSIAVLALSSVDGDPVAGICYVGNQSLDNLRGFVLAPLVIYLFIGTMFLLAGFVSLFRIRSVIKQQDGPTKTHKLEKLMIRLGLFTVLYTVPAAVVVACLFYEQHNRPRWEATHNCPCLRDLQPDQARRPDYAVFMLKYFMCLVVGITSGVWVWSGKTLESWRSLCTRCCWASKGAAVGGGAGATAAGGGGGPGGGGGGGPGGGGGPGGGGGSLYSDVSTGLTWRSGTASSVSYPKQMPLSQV
T2 sequence (Q13467 27-585): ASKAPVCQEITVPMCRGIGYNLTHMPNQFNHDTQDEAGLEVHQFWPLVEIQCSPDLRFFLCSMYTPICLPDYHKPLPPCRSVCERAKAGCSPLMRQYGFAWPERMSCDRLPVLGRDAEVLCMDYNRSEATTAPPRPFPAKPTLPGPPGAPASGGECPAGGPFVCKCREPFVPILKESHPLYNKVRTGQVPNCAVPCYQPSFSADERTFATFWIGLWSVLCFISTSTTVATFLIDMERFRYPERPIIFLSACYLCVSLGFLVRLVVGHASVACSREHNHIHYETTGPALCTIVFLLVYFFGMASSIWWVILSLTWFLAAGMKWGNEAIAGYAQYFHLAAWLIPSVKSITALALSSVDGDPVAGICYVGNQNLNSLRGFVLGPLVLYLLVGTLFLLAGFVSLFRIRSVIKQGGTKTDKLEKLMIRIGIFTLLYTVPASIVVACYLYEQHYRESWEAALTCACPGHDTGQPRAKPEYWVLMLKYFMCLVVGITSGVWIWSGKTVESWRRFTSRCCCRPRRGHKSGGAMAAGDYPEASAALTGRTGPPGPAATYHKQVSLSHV
T1 sequence (Q9UP38 70-647): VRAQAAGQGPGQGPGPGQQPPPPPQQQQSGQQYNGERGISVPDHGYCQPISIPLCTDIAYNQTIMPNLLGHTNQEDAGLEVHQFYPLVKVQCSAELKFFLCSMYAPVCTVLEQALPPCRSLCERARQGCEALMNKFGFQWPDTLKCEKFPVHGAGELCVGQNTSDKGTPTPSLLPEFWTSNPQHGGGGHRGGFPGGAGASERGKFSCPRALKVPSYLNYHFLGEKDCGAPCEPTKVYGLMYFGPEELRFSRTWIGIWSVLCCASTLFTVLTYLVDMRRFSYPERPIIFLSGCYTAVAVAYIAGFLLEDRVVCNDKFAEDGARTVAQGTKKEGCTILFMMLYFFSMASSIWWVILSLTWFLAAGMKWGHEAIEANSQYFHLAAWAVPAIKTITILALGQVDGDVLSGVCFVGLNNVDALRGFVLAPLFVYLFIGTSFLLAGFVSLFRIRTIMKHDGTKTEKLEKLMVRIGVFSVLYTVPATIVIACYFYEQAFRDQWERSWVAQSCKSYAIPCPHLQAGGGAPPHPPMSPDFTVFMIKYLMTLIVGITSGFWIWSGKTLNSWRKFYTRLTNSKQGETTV
T4 sequence (Q14332 24-565): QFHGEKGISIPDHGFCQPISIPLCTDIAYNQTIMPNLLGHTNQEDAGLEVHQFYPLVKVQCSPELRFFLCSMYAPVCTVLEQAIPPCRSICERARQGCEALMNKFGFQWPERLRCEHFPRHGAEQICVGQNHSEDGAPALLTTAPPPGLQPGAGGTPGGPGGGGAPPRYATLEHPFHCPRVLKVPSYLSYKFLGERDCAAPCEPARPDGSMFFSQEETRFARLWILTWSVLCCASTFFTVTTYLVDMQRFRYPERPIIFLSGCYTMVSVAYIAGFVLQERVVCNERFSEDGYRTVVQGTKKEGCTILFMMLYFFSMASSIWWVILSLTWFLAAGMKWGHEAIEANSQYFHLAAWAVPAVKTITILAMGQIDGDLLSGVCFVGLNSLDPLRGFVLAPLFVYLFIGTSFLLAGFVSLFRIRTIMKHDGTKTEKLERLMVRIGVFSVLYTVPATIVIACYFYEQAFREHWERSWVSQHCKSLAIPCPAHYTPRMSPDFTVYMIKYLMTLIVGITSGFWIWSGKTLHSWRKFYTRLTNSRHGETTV

B1: SHH002-hu1 (antibody, V domains shown)
VH: QVQLVQSGAEVKKPGASVKMSCKASGYTFTTYTMHWVRQAPGQGLEWIGYINPRSGYTNYNQKFQGRATVTADKSTSTAYMELSSLRSEDTAVYYCARRGYFDYWGQGTTVTVSS
VL: DIQLTQSPSSLSVSVGDRATITCRASESVDDYGNTFMHWYQQKPGKAPKLLIYLASNLQSGVPSRFSGSGSRTDFTLTISSVQAEDAATYYCQQNNEDPYTFGQGTKLEIK
notes: Whole antibody of 150 kDa (HC 50 kDa, LC 25 kDa); humanization degree 98%; detected with anti-human IgG H&L; also called humanized antibody targeting Fzd7; humanized anti-Fzd7 antibody
B1: the binding result in assay [1], in assay [2], in assay [3] and in assay [4] was “no binding” each time. In assay [5], the Kd was less than 1 pM. In assay [5], the koff was less than 1e-07 s⁻¹. Also, the kon in assay [5] came to 400000 M⁻¹ s⁻¹.
